Key:
[1] = biological target: T1, human CD112R on GS-J2C/CD112R effector cells (human, UniProt Q6DKI7 1-326); assay: cell-based or functional assay
T1 sequence (looked up): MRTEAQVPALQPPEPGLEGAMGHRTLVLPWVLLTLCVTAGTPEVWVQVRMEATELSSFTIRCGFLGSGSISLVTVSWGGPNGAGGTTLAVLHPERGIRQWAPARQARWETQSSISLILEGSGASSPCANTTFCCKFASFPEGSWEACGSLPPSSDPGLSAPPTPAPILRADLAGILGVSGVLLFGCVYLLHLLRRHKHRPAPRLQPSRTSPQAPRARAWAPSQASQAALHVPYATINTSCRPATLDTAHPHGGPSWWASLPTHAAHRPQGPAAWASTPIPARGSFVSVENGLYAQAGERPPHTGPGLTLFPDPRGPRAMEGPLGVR

[2] = biological target: T2, human CD112R on antigen-specific CD8+ T cells (human, UniProt Q6DKI7 1-326); assay: cell-based or functional assay
T2 sequence (looked up): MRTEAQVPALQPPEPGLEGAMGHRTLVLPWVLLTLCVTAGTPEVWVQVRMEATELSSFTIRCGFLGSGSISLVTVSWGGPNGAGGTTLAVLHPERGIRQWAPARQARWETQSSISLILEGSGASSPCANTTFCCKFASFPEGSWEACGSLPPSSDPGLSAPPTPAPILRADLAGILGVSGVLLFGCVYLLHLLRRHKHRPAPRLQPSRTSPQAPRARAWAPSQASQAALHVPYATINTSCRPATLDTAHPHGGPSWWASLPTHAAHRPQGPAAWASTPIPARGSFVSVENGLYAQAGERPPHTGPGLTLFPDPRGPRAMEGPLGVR

[3] = biological target: T3, human CD112R antigen protein huCD112R-His (Acro Biosysterm, PVG-H52H4) (human, UniProt Q6DKI7 41-171); assay: ELISA, huCD112R-His coated on plate
T3 construct: purchased; also called human antigen protein; not shown: His tag
T3 sequence (looked up): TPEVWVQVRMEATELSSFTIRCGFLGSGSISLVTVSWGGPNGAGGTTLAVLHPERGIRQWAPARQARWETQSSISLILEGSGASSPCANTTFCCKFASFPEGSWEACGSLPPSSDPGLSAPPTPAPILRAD

[4] = biological target: T4, monkey antigen protein (monkey CD112R, Uniprot ID: A0A2K5WVV8) (monkey, UniProt A0A2K5WVV8 41-171); assay: ELISA, monkey antigen protein (as Example 6.1)
T4 sequence: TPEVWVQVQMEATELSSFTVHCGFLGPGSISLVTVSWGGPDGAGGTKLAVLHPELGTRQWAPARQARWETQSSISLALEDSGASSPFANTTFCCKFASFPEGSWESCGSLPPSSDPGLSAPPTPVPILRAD

[5] = biological target: T3, human CD112R antigen protein …; assay: SPR (Biacore X100), antibody captured on Protein A chip, huCD112R-His as analyte, 1:1 Langmuir

Row | Binder | EC50 (Blocking effects of the antibodies, reporter gene method) [1] [µg/mL] | IFN-γ(pg/ml) at 0.5µg/ml antibody [2] [pg/mL] | IFN-γ(pg/ml) at 5µg/ml antibody [2] [pg/mL] | IFN-γ(pg/ml) at 50µg/ml antibody [2] [pg/mL] | EC50 [3] [nM] | EC50 [4] [nM] | Kd [5] [nM]
1 | C19 (antibody, human IgG1, kappa, V domains shown) VH: EVQLVESGGGLVKPGGSLKLSCAASGFTFSDYYMYWVRQTPEKRLEWVATISDAGGYTYYPDSVKGRFTISRDNARNSLYLQMSSLKSEDTAMYFCGREDLWGQGTSVTVSS VL: DIQMTQSPSSLSASLGERVSLTCRASQDIGYSLNWLQQEPDGSVRRLIYATSRLDSGVPKRFSGSRSGSDYSLTISSLESEDFVDYYCLQYASFPYTFGGGTKLEIKR | 0.033 | 571 | 744 | 829 | 0.043 | 0.034 | 0.567
2 | C20 (antibody, human IgG1, kappa, V domains shown) VH: EVQLVESGGGLVKPGGSLKLSCAASGFTFSDSYMCWVRQTPEKRLEWVATISDAGGYTYYPDSVKGRFTISRDNDRNNLYLQMSGLKSEDTAVYYCGREDLWGQGTSVTVSS VL: DIQMTQSPSSLSASLGERVSLTCRASQDIGRSLNWLQQEPDGTIKRLIYATSRLDSGVPKRFSGSRSGSDYSLTISSLESEDFVDYYCLQYASSPYTFGGGTKLEIKR | 0.025 | 708 | 835 | – | 2.27 | 8.36 | 0.114
3 | C14 (antibody, human IgG1, kappa, V domains shown) VH: QVQLQQPGAELVRPGTSVKLSCKASGNTFTSYWMHWVKQRPGQGHEWIGVIDASDSNTKYNQKFKGKATLTVDTSSSTAYMQLSSLTSEDSAVYYCARYYSGSSYGLDYWGQGTTLTVSS VL: DIQMTQTASSLSASLGDRVTISCRASQDISNYLNWYQQKPDGTVKLLIYYTSRLHSGVPSRFSGSGSGTDFSLTITHLEQEDIASYFCQQGNMFPPTFGGGTKLEIKR | 0.052 | 619 | 674 | 759 | 0.052 | 0.067 | 0.0687
4 | C24 (antibody, human IgG1, kappa, V domains shown) VH: QVQLKQSGPGLVQPSQNLSITCTVSGFSLTGYGINWVRQSPGKGLEWLGVIWSGGNTEYNAAFRSRLSISKDTSKSQVFLKMNSLQADDTAIYSCARDSTGLYAMDYWGPGTSVTVSS VL: DLQMTQTTSSLSASLGDRVTISCRTSQDISNFLNWYQQKPDGPLKLLIYYTSRLHSGVPSRFSGSGSGTDYSLTISNLEQEDIATYFCQQGYMLPPTFGGGTKLEIKR | 0.05 | 611 | 656 | 733 | 0.048 | 0.169 | 0.0467
5 | C41 (antibody, human IgG1, kappa, V domains shown) VH: EVQLQQSGPELVKPGASVKISCKASGNTFTDYYINWVKQSHGKSLEWIGDIEPNNGGTNYNQKFKGKATLTVDKSSSTAYMELRSLTSEDSAIYYCATLYFDYWGQGTTLTVSS VL: DIVMTQSPSSLSVSAGEKVTMSCKSSQSLLNSGNQKNYLAWYQQKPGQPPKLLIYGASTRESGVPDRFTGSGSGTDFTLTISSVQAEDLAVYYCQNDHSYPFTFGSGTKLEIKR | 0.024 | 573 | 751 | 659 | 0.033 | 0.052 | 0.022
6 | C3 (antibody, human IgG1, kappa, V domains shown) VH: QVQLQQSGPELVKPGASVKISCRSSGYTFTDYYINWVKQRPGQGLEWIGWIFPGSDYTYYNEKFKGKATLTVDKSSTTAYMLLSSLTSEDSAVYFCARDGGLRGPFDYWGQGTTLTVSS VL: DIQMTQSPSSLSASLGGKVTITCKASQDINKYIAWYQQKPGKGPRLLIHYTSTLQPGIPSRFSGSGSGRNSSFSISNLEPEDIATYYCLQYDNLHTFGGGTKLEIKR | 0.04 | 535 | 633 | 755 | 0.046 | 0.118 | 0.181

From patent EP4644419A1 (Hangzhou Zhongmeihuadong Pharmaceutical Co., Ltd., dated 2025)
